Results published in patent publication US20090226421A1 (Genmab, published 2009).

Target: T1, human C1q (human, UniProt P02745 23-245; P02746 28-253; P02747 29-245)
T1 construct: also called first component of the classical complement cascade
Assay: ELISA, antibody coated, C1q detected with rabbit anti-human C1q
Description: In short, microtiter ELISA plates (Greiner, Germany) were coated overnight at RT with the test antibodies serially diluted from 10 μg/ml to 0.06 μg/ml in PBS. Plates were emptied and wells were blocked with 200 μl ELISA-diluent per well (0.1 M NaPO₄, 0.1 M NaCl, 0.1% gelatin and 0.05% Tween-20), at RT for 30 minutes. […] After washing the plates (3×) with PBST, wells were incubated with HRP-conjugated swine anti-rabbit IgG-Fc (DAKO, P0300, lot #069) diluted in ELISA diluent (1:2500, 100 μl/well, RT, 1 hour). Thereafter, plates were washed thrice and assays were developed with freshly prepared 1 mg/ml ABTS solution (ABTS: 2,2′-azino-bis[3-ethylbenzthiazoline-6-sulfonic acid]); 2 tablets of 5 mg in 10 ml ABTS buffer, Boehringer Mannheim, Ingelheim, Germany) at RT in the dark for 30 minutes. Absorbance was measured at 405 nm in an ELISA plate reader (Biotek Instruments Inc., Winooski, USA).

T1 sequence (P02745 23-245, chain 1 of 3): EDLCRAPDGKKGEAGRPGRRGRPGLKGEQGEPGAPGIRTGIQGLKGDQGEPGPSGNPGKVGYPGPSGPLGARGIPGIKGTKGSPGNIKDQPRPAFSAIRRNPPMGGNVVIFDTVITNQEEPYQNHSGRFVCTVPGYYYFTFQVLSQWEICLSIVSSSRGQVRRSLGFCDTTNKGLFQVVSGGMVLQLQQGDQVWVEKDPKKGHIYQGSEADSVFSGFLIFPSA
T1 sequence (P02746 28-253, chain 2 of 3): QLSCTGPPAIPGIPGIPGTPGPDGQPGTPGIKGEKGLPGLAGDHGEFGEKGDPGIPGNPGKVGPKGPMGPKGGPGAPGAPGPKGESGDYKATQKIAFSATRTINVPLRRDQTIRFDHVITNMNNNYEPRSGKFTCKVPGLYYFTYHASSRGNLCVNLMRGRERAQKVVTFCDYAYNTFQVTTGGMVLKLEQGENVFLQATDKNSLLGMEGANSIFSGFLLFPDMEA
T1 sequence (P02747 29-245, chain 3 of 3): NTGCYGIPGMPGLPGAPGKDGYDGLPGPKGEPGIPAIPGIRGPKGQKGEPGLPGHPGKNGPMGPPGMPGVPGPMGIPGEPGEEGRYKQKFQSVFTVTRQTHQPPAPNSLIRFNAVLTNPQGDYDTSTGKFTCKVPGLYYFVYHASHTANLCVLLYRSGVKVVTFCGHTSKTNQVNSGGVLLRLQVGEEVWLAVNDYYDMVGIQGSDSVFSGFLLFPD

- binding result: no binding
B1: 7D8-HG (antibody)
heavy: EVQLVESGGGLVQPDRSLRLSCAASGFTFHDYAMHWVRQAPGKGLEWVSTISWNSGTIGYADSVKGRFTISRDNAKNSLYLQMNSLRAEDTALYYCAKDIQYGNYYYGMDVWGQGTTVTVSSASTKGPSVFPLAPCSRSTSESTAALGCLVKDYFPEPVTVSWNSGALTSGVHTFPAVLQSSGLYSLSSVVTVPSSSLGTKTYTCNVDHKPSNTKVDKRVAPEFLGGPSVFLFPPKPKDTLMISRTPEVTCVVVDVSQEDPEVQFNWYVDGVEVHNAKTKPREEQFNSTYRVVSVLTVLHQDWLNGKEYKCKVSNKGLPSSIEKTISKAKGQPREPQVYTLPPSQEEMTKNQVSLTCLVKGFYPSDIAVEWESNGQPENNYKTTPPVLDSDGSFFLYSRLTVDKSRWQEGNVFSCSVMHEALHNHYTQKSLSLSLGK
light: not shown
notes: Half-molecule of one heavy and one light chain (SDS-PAGE, MS 71520 Da); also called HuMab 7D8-HG; hingeless IgG4 anti-CD20
